The data set deals with K4 kissing-loop RNA reporter. As to the kind of experiment: apparent KD of K4 kissing-loop reporter; higher = weaker reporter binding. As to conditions: Eterna round: R107. The protocol:
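RNA-MaP round R107: designed RNA switches with theophylline, tryptophan, arginine or FMN aptamers are transcribed on-chip within common flanks. They are titrated with a labelled K4 kissing-loop RNA reporter in RNA-MaP buffer (100 mM Tris pH 7.5, 80 mM KCl, 4 mM MgCl2), without ligand or with the indicated ligand. Median apparent KD per design.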

Setting [1] is: input ligand: theophylline 20 uM.
[2] abbreviates: input ligand: tryptophan 2.4 mM.
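Note: bound reporter read as fluorescence of individual clusters on recovered sequencing chips by microscopy, with normalized cluster intensities fitted with a binding model.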

On to “UGUAUAGUCAGAAGGAGCGUGAACGAUCGAGAAUCGAUCAGCCAGUGAUGUUGGCAGGAAUCACAGGUAGGUCGCUGACUGUACA [Arg B SS t3]”, for which the “apparent KD of K4 kissing-loop reporter” value is 0.237 µM (input ligand: FMN 200 uM); 0.208 µM (input ligand: arginine 13.2 mM); 0.258 µM (input ligand: none); 0.24 µM under setting [1]; 0.208 µM under setting [2].
As to “UGUAUGGACUGAAGGAGCGGUAGAUAAACUGAGUGAUGUUCGGCAGAUAAAGGCGCAAGCCACCAGGUAGGUCGCAGUCCAUACU [KL-SSArg B3]”, the “apparent KD of K4 kissing-loop reporter” value runs as follows: (input ligand: FMN 200 uM) 0.381 µM; (input ligand: arginine 13.2 mM) 0.274 µM; (input ligand: none) 0.391 µM; under setting [1], 0.408 µM; under setting [2], 0.342 µM.
The matching figures for “UGUAUGUGAUUUGAUACCAGACCAGCUGGUGGUGUAUGAGUGAUGUUCAUGUUGGUUUGGGUCCCUUGGCAGCAAAUCGCAUACU [KL-SSTheoB30]”: 0.0145 µM, 0.0074 µM, 0.0118 µM, 0.00888 µM and 0.0117 µM.
As for “UGUCAUUGGUCGGCCGCCACUAGGACCGGGACUUCUCUAGUGAUGUUAGUCUGGUCGGCCGCCACUAGGACCGGGACCGAUGACU [KL-SSTryp-B14 #DoubleAptamer]”, the “apparent KD of K4 kissing-loop reporter” value by setting is: (input ligand: FMN 200 uM) 0.561 µM; (input ligand: arginine 13.2 mM) 0.368 µM; (input ligand: none) 0.671 µM; under setting [1], 0.327 µM; under setting [2], 0.103 µM.
The matching figures for “UGUGGAGGAUAUGAUACCAGCAGUGAGAGAGAGGAAGUAUAGUGAUGUUAUAUGAGAGAAUGCCCUUGGCAGCGUAUGUAGUAGG [SSTheophylB.I]”: 0.27 µM, 0.21 µM, 0.218 µM, 0.208 µM and 0.191 µM.
The matching figures for “UGUGGUGUAUCCUUUAGGAGUGAUGUUUUUCGAGGACCGGUACGGCCGCCACUCGAGUGAUGAGAGCGUCGUUGUGGUGGUUUGU [#16 K4 Tryptophan A Exclusion]”: 1.06 µM, 0.698 µM, 1.19 µM, 0.697 µM and 0.73 µM.
With “UGUGUUGUUGUGAUGUUUGGUGUUGCAGGGCAGGAUAUCGUAGAGGCGAGAAGGGCUUUUGUGCGGUAUGAGUGAUGUUUGUAGG [rrcgsmullin]”, the “apparent KD of K4 kissing-loop reporter” value is, setting by setting: (input ligand: FMN 200 uM) 0.197 µM; (input ligand: arginine 13.2 mM) 0.218 µM; (input ligand: none) 0.27 µM; under setting [1], 0.369 µM; under setting [2], 0.25 µM.
The matching figures for “UGUGUUUACCUGACUCAGUGAUGUUGAGAAGGAGCGUGCAAAAGCACAGGUAGGUCGCUCAACCUAAAUUCAGGUGAGCACUAAA”: 0.271 µM, 0.201 µM, 0.255 µM, 0.252 µM and 0.264 µM.
The corresponding values for “UGUGUUUACCUGACUCAGUGAUGUUGAGAAGGAGCGUGCAAAGGCACAGGUAGGUCGCUCAACCUAAAUUCAGGUGAGCACUAAA” are 0.246 µM, 0.331 µM, 0.24 µM, 0.31 µM and 0.217 µM.
The matching figures for “UGUUGAGUGAUGUUCGAUGUAGUUCAUUCAGAGGAUAUAGGGUGGGCUAGAAGGCUGAAAAGUGCUUCGAGUGAUGUUCGAAGAU [Exclusion FMN A GF 7]”: 0.0773 µM, 0.0777 µM, 0.0993 µM, 0.0895 µM and 0.0911 µM.
With “UUACGCGGCAUAGAUACCAGCAAUGCAGGAUAGGUCAAGAGUGAUGUUCUGAUACUUGGGUGCCCUUGGCAGCUAGACGAUAACA [theeternabot_sameState_KL_Theo_B_46]”, the “apparent KD of K4 kissing-loop reporter” value was determined as 0.479 µM (input ligand: FMN 200 uM); 0.449 µM (input ligand: arginine 13.2 mM); 0.521 µM (input ligand: none); 0.412 µM under setting [1]; 0.308 µM under setting [2].
The matching figures for “UUAGAAGUAUACUUCAAGAGCUAUACUGAUACCAGAGUCAAUUGACUCCCUUGGCAGCGGAUCGAGUGAUGUUCGUAAGCUCAUU [AK4 SS Theophylline A]”: 0.464 µM, 0.456 µM, 0.583 µM, 0.521 µM and 0.502 µM.
As to “UUAGUAUAGAGAGGAUAUACCUUCCAGUGAUGUUGGAUAGAUGAAUUUAAUCAUCAAGCAUAGCUUGUAGAAGGCUCUAUACAUU [AK1 SS FMN B]”, the “apparent KD of K4 kissing-loop reporter” value is, setting by setting: (input ligand: FMN 200 uM) 0.373 µM; (input ligand: arginine 13.2 mM) 0.558 µM; (input ligand: none) 0.535 µM; under setting [1], 0.637 µM; under setting [2], 0.613 µM.
The matching figures for “UUAUAUAAUUUGUCUUUUUUAACAUUAAGUCAGGAUAUCGUAUAUUCGAGAAGGGACACAUGCUAGUGAUGUUAGCUAUUUCUUU [JR_ExcFMNA_Sub016]”: 0.0317 µM, 0.0553 µM, 0.0304 µM, 0.043 µM and 0.0306 µM.
Take “UUAUAUUUCAGUGAUGUUGAAAAUAUAACAGAGGAUAUGCGUUUAAGCAGAAGGCUGAAAUACUAUACUUUAAUCUAUUAAAUUU [JR_Nu_SSFMNA_Sub027]”: the “apparent KD of K4 kissing-loop reporter” value is, setting by setting: (input ligand: FMN 200 uM) 0.195 µM; (input ligand: arginine 13.2 mM) 0.356 µM; (input ligand: none) 0.35 µM; under setting [1], 0.353 µM; under setting [2], 0.323 µM.
The matching figures for “UUAUUGAGCGUUUGUGAGAAGGCGUUCUUCAAGGAUAUCGACGUAACGAGAAGGUGAUUCGUUCCGAGUGAUGUUCGGUACGGGC [theeternabot_sameState_KL_FMN_A_4]”: 0.222 µM, 0.185 µM, 0.234 µM, 0.24 µM and 0.199 µM.
The corresponding values for “UUCAGUGAUGUUGAACACUGUUGUAUAAACUAGGAUAUGCUGAUAAGCAGAAGGAGUGAUGUUCCGUUCAUCAUCAGAAUUAAAU [KL-XFMN-A3]” are 0.673 µM, 0.4 µM, 0.359 µM, 0.424 µM and 0.25 µM.
The matching figures for “UUCUACGAGUGAUGUUCGUAGUGUAAUCGCUAGGAUAUCGUUUUUUCGAGAAGGAGCGUCGAAGUGAUACGAAAGUAUCGCUUCG [FMN A 13]”: 0.151 µM, 0.258 µM, 0.3 µM, 0.284 µM and 0.284 µM.
For the sequence “UUCUACGAGUGAUGUUCGUAGUGUAUUCACUAGGAUAUCGUUUUUUCGAGAAGGAGUGAGGAAGUGAUACGAAAGUAUCGCUUCC [FMN A 15]”, the “apparent KD of K4 kissing-loop reporter” value is, setting by setting: (input ligand: FMN 200 uM) 0.192 µM; (input ligand: arginine 13.2 mM) 0.353 µM; (input ligand: none) 0.431 µM; under setting [1], 0.361 µM; under setting [2], 0.378 µM.
The corresponding values for “UUGAGCCGGACUCAAGUCCGGCUCUGCGAGCGAGGACCGGUACGGCCGCCACUCGGUGCAGUGAUGUUGCAUGGCCGCAAGGCCG [#2 Exclusion - Tryptophan A Attempt #13 (HarryS)]” are 0.413 µM, 0.133 µM, 0.482 µM, 0.404 µM and 0.52 µM.
Turning to “UUGAGCCUGACGCAAGUCAGGCUCUGCGAGCGAGGACCGGUACGGCCGCCACUCGGUGCAGUGAUGUUGCAUGGCCGCAAGGCCG [#2 Exclusion - Tryptophan A Attempt #17 (HarryS)]”, the “apparent KD of K4 kissing-loop reporter” value is, setting by setting: (input ligand: FMN 200 uM) 0.316 µM; (input ligand: arginine 13.2 mM) 0.299 µM; (input ligand: none) 0.318 µM; under setting [1], 0.394 µM; under setting [2], 0.441 µM.
On to “UUGAUAUGAUAAUAUCCUGUUUGAUAAAGACAGGAUAUAGAAAAUACUAGAAGGGUCAUUAUAUGCAGUGAUGUUGCAAAUAAGU [Exclusion FMN A Gf 23]”, for which the “apparent KD of K4 kissing-loop reporter” value (input ligand: FMN 200 uM) is 0.0422 µM; the “apparent KD of K4 kissing-loop reporter” value (input ligand: arginine 13.2 mM) turned out to be 0.0673 µM; the “apparent KD of K4 kissing-loop reporter” value (input ligand: none) turned out to be 0.0457 µM; the “apparent KD of K4 kissing-loop reporter” value under setting [1] is 0.0662 µM; the “apparent KD of K4 kissing-loop reporter” value under setting [2] was determined as 0.0376 µM.

These data come from the supplement of paper PMC9170038.
